# According to the supplement of paper PMC9170038:
# System: MS2 coat protein
# Assay: apparent KD of MS2 coat protein; designed switch direction (-1 OFF switch, 1 ON switch): 1; higher = weaker reporter binding
# Procedure, shortened: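 Normalised cluster fluorescence was curve-fitted, and each design's median over clusters is its apparent KD. Before this, SNAP-549-labelled MS2 coat protein was titrated from 0.7 or 1.5 nM, doubling to 3 µM, over RNA switches transcribed on Illumina chips by stalled E. coli RNA polymerase. Titrations had no input, 200 uM small-molecule ligand, or an oligonucleotide input, and steps lasted 0.8–1.5 h (lowest) to 10–20 min (highest).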
# [1] = input ligand: microRNA oligo, concentration not stated
# [2] = Eterna round: R95, input ligand: FMN 200 uM
# [3] = Eterna round: R95, input ligand: microRNA oligo, concentration not stated
# [4] = Eterna round: R95, input ligand: none
Sequence,apparent KD of MS2 coat protein (input ligand: FMN 200 uM),apparent KD of MS2 coat protein [1],apparent KD of MS2 coat protein (input ligand: none),apparent KD of MS2 coat protein [2],apparent KD of MS2 coat protein [3],apparent KD of MS2 coat protein [4]
"UGGCUGGUGCUAGGAUAUGCAUGAGGCCUCCUCGUAGAAGGAGCACGACAUGAGGAUCACCCAUGUAGCCGUCCGUAGACGGCU [salish99_SSNG1_r04_011] (Eterna round: R96, puzzle: Same State NG 1)",62.7 nM,50.1 nM,63.3 nM,–,–,–
"UUCAACUGAGGAGGAUAUGCAGAGGAUCACCCUGUAGAAGGCCUCGAAAGGAGGAUAUGCAGAGGAUCACCCUGUAGAAGGCCU [pwkr ssNG DX.19] (Eterna round: R96, puzzle: Same State NG 1)",417 nM,148 nM,132 nM,–,–,–
"AGUCCAGCCUGAGCUGGACAAAAGCAUGUACAUGAGGAUCACCCAUGUCAUGUACAAGCUUUUUGCUCAUCUUAAAA [Mat - hsa-mir-208a - Mod of JL - D11] (Eterna round: R96, puzzle: Sensor for hsa-mir-208a)",750 nM,11.8 nM,886 nM,–,–,–
"AAAAGACAUGAGGAUCACCCAUGUCAAGACGUGGGAGGAUAUGCAUGGAAAACAUGCUGUGCAGAAGGCCCGUGUC [SS1 - 20] (Eterna round: R96, puzzle: Same State 1)",16.2 nM,16.6 nM,24 nM,–,–,–
"AGCUAUUAAUCAGGAUAUAGUGACAUGAGGAUCACCCAUGUAUUGAUGAUUAAAUGUGGUCACCACUAGAAGGGAUUACUAACA [SameState NG2 #48] (Eterna round: R96, puzzle: Same State NG 2)",23.2 nM,23.8 nM,26.9 nM,–,–,–
"UUUAUAUUCAGAGGAUAUUGAUGUUGUAUUUUACAAGAAGGCUGAUUGUUUUGUAAUGUUAUUAAACAUGAGGAUCACCCAUGU [JR_SSNG1_Sub013] (Eterna round: R96, puzzle: Same State NG 1)",19.7 nM,22.5 nM,27.3 nM,–,–,–
"UUCCUUCUCGUAGGAUAUGUAGGAUAUUCCUACAUGAGGAUCACCCAUGUUCGCAUGGAAGAAGGACAGAAGGACGAUCACCCU [pwkr ssNG2 2FMN + 1F5.11] (Eterna round: R96, puzzle: Same State NG 2)",91.3 nM,74.3 nM,98.5 nM,–,–,–
"UAAUGUUUGCGAGGAUAUCGUUUAUUGAAGUUACGAGAAGGCGCUCUUCUUACAUGAGGAUCACCCAUGUCUGUUUUGCAUGAU [JR_SSNG1_Sub069] (Eterna round: R96, puzzle: Same State NG 1)",44.4 nM,56.8 nM,81.5 nM,–,–,–
AUAAGUUUGAUGCUCGUCUCUCCGUACAAACAUGAGGAUCACCCAUGUGGUCGGGUAGUAGCCCGGCCAGUAUGGCC [Ribiesreri] (puzzle: Sensor for hsa-mir-208a),–,–,–,40.3 nM,20.3 nM,46 nM
"GGAGCCGGCCUAGGAUAUUUCAUAAUAUUACAUGAGGAUCACCCAUGUAGGCCAGAAGGCCUUGGGAAGAAGGAGGUCGGCUCC [Loop Effect - U26,U28,U29] (Eterna round: R96, puzzle: Same State NG 2)",–,30.7 nM,–,–,–,–
"UAGUGCAUUAGAGGAUAUUCUUACGGAAACGGUAAGACAUGAGGAUCACCCAUGUUGUCACAUGGGAAGAAGGCUGAUGUGCUA [Omei SS(NG)2 Bv5] (Eterna round: R96, puzzle: Same State NG 2)",82.6 nM,104 nM,510 nM,–,–,–
UUUAGUUGCGGGCAGGAUAUGUAUUAAAAUACAUGAGGAUCACCCAUGUGAGACCAUAAAGGUCUACAGAAGGGCCAAUCGCGAC [Laonerce - 19] (puzzle: Same State 2),–,–,–,14.9 nM,89 nM,88.1 nM
CUCAAAACAAGUUGCAGUGUUCGUCUUUAACAUGAGGAUCACCCAUGUAAUAACCCAGUGGAAGCGCUCGGGCCACC [Ineson] (puzzle: Sensor for hsa-mir-208a),–,–,–,30.2 nM,–,28.5 nM
UCUUGGUUUUUGCUCGUUUUUUGUGUUGAACAUGAGGAUCACCCAUGUAUUGUACGGUCCGGUUUAGUAGUGGUCCG [JMF 17] (puzzle: Sensor for hsa-mir-208a),–,–,–,25.7 nM,16.6 nM,30.4 nM
UGUCCAGCCUGAGCUGGACAAAAGCAUGUACAUGAGGAUCACCCAUGUUCAUGUACAAGCUUUUUGCUCGUCUUAGG [salish99_208a_r3_066] (puzzle: Sensor for hsa-mir-208a),–,–,–,695 nM,19.2 nM,506 nM
"UGUUGUAUUACAGGAUAUCUAUUAUUUAUAUUUAGAGAAGGGUAUUCACAUGAGGAUCACCCAUGUAUAUACGAGGAAGUUGUG [JMF's solution 19] (Eterna round: R96, puzzle: Same State NG 1)",–,36.4 nM,–,–,–,–

Sequence,apparent KD of MS2 coat protein (input ligand: FMN 200 uM),apparent KD of MS2 coat protein [1],apparent KD of MS2 coat protein (input ligand: none),apparent KD of MS2 coat protein [2],apparent KD of MS2 coat protein [3],apparent KD of MS2 coat protein [4]
"GGACGGUUAUCAGGAUAUGCGCUGAGCAUCACGGCUACAUGAGGAUCACCCAUGUCUAGCUUCUCGCAGAAGGGAUAGCCUCCU [Eternabot solution 36] (Eterna round: R96, puzzle: Same State NG 2)",11.2 nM,10.1 nM,15 nM,–,–,–
"UUACAUGAGGAUCACCCAUGUCGCUGGUAAACUUCGAACCCGCAGGAUAUGUAUGCCACUUUACGACAGAAGGGCGGGUGCCUG [Eternabot solution 47] (Eterna round: R96, puzzle: Same State NG 3)",37.9 nM,50.3 nM,64.3 nM,–,–,–
GAGGCACAUGAGGAUCACCCAUGUGGGUAUAACAUAGGAUAUCACCAACAAAAUACCCGGUGAGAAGGAUGAUGCC [Ravevele] (puzzle: Same State 1),–,–,–,–,158 nM,–
"UCGAGCGUACUUGCAGACAUGAGGAUCACCCAUGUAAAUGGGAAGGAUAUGGUACCGUUUCGGUACCAGAAGGUCCUAAGUGAU [salish99_SSNG3_r04_302] (Eterna round: R96, puzzle: Same State NG 3)",574 nM,465 nM,1200 nM,–,–,–
"AUUAAUUAAUUAAUACAUGAGGAUCACCCAUGUAAUAAGAUCUAGGAUAUCAGCUCGAUUAGAGCUGAGAAGGAGAUCACAUGU [SSNG3/17-A2] (Eterna round: R96, puzzle: Same State NG 3)",–,36.3 nM,–,–,–,–
"GGCGUAUAAACAUGAGGAUCACCCAUGUAGCGGAGACGCAAUGAGGAUAUCGAUGGGUUUCCCGUCGAGAAGGCGUGGGUCGCC [JL SSNG3 3.94] (Eterna round: R96, puzzle: Same State NG 3)",20.6 nM,20.6 nM,29 nM,–,–,–
"AUUAUUAAUGCAGGAUAUGAUUAACAUGAGGAUCACCCAUGUGGUGUUGUGAGUAAGGAGAGUGAUCAGAAGGGCAUAUUUUUU [JMF's solution 9] (Eterna round: R96, puzzle: Same State NG 2)",668 nM,407 nM,625 nM,–,–,–
"UUGAAGAAUUAAGGAUAUUGAUUACAUAUGUUUAACAUGAGGAUCACCCAUGUGGGUUGCGGUAUCGAGAAGGUAAAUUACUAG [JL SSNG2 1.47] (Eterna round: R96, puzzle: Same State NG 2)",137 nM,122 nM,162 nM,–,–,–
AGCUAUCGCGUACGAUAGCUGAAGCAUGUACAUGAGGAUCACCCAUGUCAUGUACAGGCUUUUUGCUCGUCUUAUUG [JL-shm-2.27 JL mod] (puzzle: Sensor for hsa-mir-208a),–,–,–,770 nM,16.4 nM,625 nM
"AAAAGAAACACAGGAUAUACCGCACUUAACGCGGUAGAAGGGUGGGACAUGAGGAUCACCCAUGUGGUCUGGGCGCCAGACCGC [Esratean] (Eterna round: R96, puzzle: Same State NG 1)",29.1 nM,23.3 nM,22 nM,–,–,–
"GAAGACAUAGUUCAGGAUAUAGGAAUAGUCACAUGAGGAUCACCCAUGUGCAUUUAUAUGCGCACUUAGAAGGGAGGUAGUUAUC [SameState2 Malc#23] (Eterna round: R96, puzzle: Same State 2)",39.4 nM,29.4 nM,39.4 nM,–,–,–
"UUGAUUAGAAAUUAACAUGAGGAUCACCCAUGUAUUGGAUCAGAGGAUAUGCAUGUUUGAUAGUAGCAGAAGGCUGAUGGUGGA [JR_SSNG3_Sub027] (Eterna round: R96, puzzle: Same State NG 3)",68.3 nM,44.2 nM,45.8 nM,–,–,–
"UUGCUUCUCGUAGGAUAUGUAGGAUAUUCCUACAUGAGGAUCACCCAUGUUCGCAUGGAAGAAGGACAGAAGGACGAUCACCCU [pwkr ssNG2 2FMN + 1F5.10] (Eterna round: R96, puzzle: Same State NG 2)",330 nM,234 nM,271 nM,–,–,–
"GCAGGACGGUAAAACAUCUCACAUGAGGAUCACCCAUGUCGUGAGGAUAUGGAUCCUAAUUGGAUCCAGAAGGCACGGUCCUGC [Fiskers NG3ss - 29] (Eterna round: R96, puzzle: Same State NG 3)",18.4 nM,14 nM,13.6 nM,–,–,–
CGUCCGGCCUGUGCUGGCCGGUCGCUUGUACAUGAGGAUCACCCAUGUUCUUGUGCUGGCUUUUUGCUCGUCUUGUG [salish99_mir208a_020] (puzzle: Sensor for hsa-mir-208a),–,–,–,27.1 nM,17.7 nM,31 nM
